T1: cyclin A1 (CCNA1), isoform 3 (SEQ ID NO:4) peptide on HLA-A*02:01 (human)
T1 peptide: FLDRFLSCM

T2: cyclin A1 (CCNA1), isoform 3 (SEQ ID NO:4) peptide on HLA-A*02:01 (human)
T2 peptide: SLIAAAAFCLA

T3: cyclin A1 (CCNA1), isoform 3 (SEQ ID NO:4) peptide on HLA-A*02:01 (human)
T3 peptide: YSLSEIVPCL


Assays:
Assay in all cases: multimer staining
[1] = molecular target: T1, cyclin A1 (CCNA1), isoform 3 (SEQ ID …)
[2] = molecular target: T2, cyclin A1 (CCNA1), isoform 3 (SEQ ID …)
[3] = molecular target: T3, cyclin A1 (CCNA1), isoform 3 (SEQ ID …)

| binding result [1] | Binder | other results |
| --- | --- | --- |
| recognises | TCR #4 (TCR, V domains shown) Valpha: SQQGEEDPQALSIQEGENATMNCSYKTSINNLQWYRQNSGRGLVHLILIRSNEREKHSGRLRVTLDTSKKSSSLLITASRAADTASYFCATDAWESNFGNEKLTFGTGTRLTIIP Vbeta: GAGVSQSPSNKVTEKGKDVELRCDPISGHTALYWYRQSLGQGLEFLIYFQGNSAPDKSGLPSDRFSAERTGGSVSTLTIQRTQQEDSAVYLCASSLVVGSYEQYFGPGTRLTVT | – |
| recognises | TCR #3 (TCR, V domains shown) Valpha: QKEVEQNSGPLSVPEGAIASLNCTYSDRGSQSFFWYRQYSGKSPELIMSIYSNGDKEDGRFTAQLNKASQYVSLLIRDSQPSDSATYLCAVDSGGYQKVTFGTGTKLQVIP Vbeta: GAGVSQTPSNKVTEKGKYVELRCDPISGHTALYWYRQSLGQGPEFLIYFQGTGAADDSGLPNDRFFAVRPEGSVSTLKIQRTERGDSAVYLCASSLNMNTEAFFGQGTRLTVV | – |
| – | TCR #7 (TCR, V domains shown) Valpha: ILNVEQSPQSLHVQEGDSTNFTCSFPSSNFYALHWYRWETAKSPEALFVMTLNGDEKKKGRISATLNTKEGYSYLYIKGSQPEDSATYLCAYLGAGNQFYFGTGTSLTVIP Vbeta: DGGITQSPKYLFRKEGQNVTLSCEQNLNHDAMYWYRQDPGQGLRLIYYSQIVNDFQKGDIAEGYSVSREKKESFPLTVTSAQKNPTAFYLCASSLNRGRYGYTFGSGTRLTVV | binding result [2]: recognises |
| – | TCR #8 (TCR, V domains shown) Valpha: AQKVTQAQTEISVVEKEDVTLDCVYETRDTTYYLFWYKQPPSGELVFLIRRNSFDEQNEISGRYSWNFQKSTSSFNFTITASQVVDSAVYFCALSELASGGSYIPTFGRGTSLIVHP Vbeta: DAGVTQSPTHLIKTRGQQVTLRCSPKSGHDTVSWYQQALGQGPQFIFQYYEEEERQRGNFPDRFSGHQFPNYSSELNVNALLLGDSALYLCASSFRLAGGPSTDTQYFGPGTRLTVL | binding result [3]: recognises |

Reference: patent US20200405762A1 (published 2020)
